# From the supplement of paper PMC10567573
# B1: FBXO39 (parent)
# chain: RVFKARIYTNRYETNEEDKTLQEI
# Variants of: B1
# Assay: protein stability index of a GFP-peptide fusion (GPS, HEK-293T) (PSI 1-6); higher = more stable
# Settings: c terminus: a fixed tail appended
# 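Further: lentivirally expressed fusions sorted by FACS into six bins by GFP to DsRed ratio, PSI derived from sequencing read proportions per bin multiplied by bin number.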
row,Variant,protein stability index
1,RPFKARIYTNRYETNEEDKTLQEI [V2P],4.56
2,RSFKARIYTNRYETNEEDKTLQEI [V2S],4.22
3,RKFKARIYTNRYETNEEDKTLQEI [V2K],3.36
4,RVFKARIYRNRYETNEEDKTLQEI [T9R],3.04
5,RVFKARIYYNRYETNEEDKTLQEI [T9Y],2.16
6,RVFKARIYVNRYETNEEDKTLQEI [T9V],2.32
7,RVFKARIYLNRYETNEEDKTLQEI [T9L],2.54
8,RVFKARIYQNRYETNEEDKTLQEI [T9Q],2.73
9,RVFKARIYHNRYETNEEDKTLQEI [T9H],2.47
10,RVFKARIYWNRYETNEEDKTLQEI [T9W],1.92
11,RVFKARIYNNRYETNEEDKTLQEI [T9N],2.87
12,RVFKARIYGNRYETNEEDKTLQEI [T9G],2.49
13,RVFKARIYANRYETNEEDKTLQEI [T9A],3.18
14,RVFKARIYINRYETNEEDKTLQEI [T9I],2.21
15,RVFKARIYSNRYETNEEDKTLQEI [T9S],2.18
16,RVFKARIYENRYETNEEDKTLQEI [T9E],3.24
17,RVFKARIYFNRYETNEEDKTLQEI [T9F],1.82
18,RVFKARIYKNRYETNEEDKTLQEI [T9K],3.08
19,RVFKARIYDNRYETNEEDKTLQEI [T9D],3.38
20,RVFKARIYPNRYETNEEDKTLQEI [T9P],3.15
21,RVFKARIYMNRYETNEEDKTLQEI [T9M],3.24
22,RVFKAPIYTNRYETNEEDKTLQEI [R6P],4.08
23,RVFKAEIYTNRYETNEEDKTLQEI [R6E],4.25
24,RVFKANIYTNRYETNEEDKTLQEI [R6N],3.72

row,Variant,protein stability index
1,RVFKADIYTNRYETNEEDKTLQEI [R6D],4.04
2,RVFKAWIYTNRYETNEEDKTLQEI [R6W],1.92
3,RVFKATIYTNRYETNEEDKTLQEI [R6T],3.79
4,RVFKAMIYTNRYETNEEDKTLQEI [R6M],1.99
5,RVFKAGIYTNRYETNEEDKTLQEI [R6G],3.7
6,RVFKASIYTNRYETNEEDKTLQEI [R6S],3.37
7,RVFKAIIYTNRYETNEEDKTLQEI [R6I],1.9
8,RVFKAKIYTNRYETNEEDKTLQEI [R6K],3.01
9,RVFKAVIYTNRYETNEEDKTLQEI [R6V],2.21
10,RVFKAAIYTNRYETNEEDKTLQEI [R6A],3.66
11,RVFKAYIYTNRYETNEEDKTLQEI [R6Y],2.62
12,RVFKAHIYTNRYETNEEDKTLQEI [R6H],2.83
13,RVFKAQIYTNRYETNEEDKTLQEI [R6Q],3.71
14,RVFKAFIYTNRYETNEEDKTLQEI [R6F],1.41
15,RVFKACIYTNRYETNEEDKTLQEI [R6C],2.77
16,RVFAARIYTNRYETNEEDKTLQEI [K4A],2.55
17,RVFRARIYTNRYETNEEDKTLQEI [K4R],3.12
18,RVFSARIYTNRYETNEEDKTLQEI [K4S],3.6
19,RVFQARIYTNRYETNEEDKTLQEI [K4Q],4.48
20,RVFHARIYTNRYETNEEDKTLQEI [K4H],3.52
21,RVFPARIYTNRYETNEEDKTLQEI [K4P],4.27
22,RVFIARIYTNRYETNEEDKTLQEI [K4I],1.88
23,RVFYARIYTNRYETNEEDKTLQEI [K4Y],2.11
24,RVFLARIYTNRYETNEEDKTLQEI [K4L],1.99

row,Variant,protein stability index
1,RVFMARIYTNRYETNEEDKTLQEI [K4M],2.65
2,RVFNARIYTNRYETNEEDKTLQEI [K4N],3.6
3,RVFEARIYTNRYETNEEDKTLQEI [K4E],3.81
4,RVFTARIYTNRYETNEEDKTLQEI [K4T],4.72
5,RVFDARIYTNRYETNEEDKTLQEI [K4D],4.08
6,RVFCARIYTNRYETNEEDKTLQEI [K4C],2.83
7,RVFGARIYTNRYETNEEDKTLQEI [K4G],3.59
8,RVFVARIYTNRYETNEEDKTLQEI [K4V],2.16
9,RVFFARIYTNRYETNEEDKTLQEI [K4F],2.03
10,RVFKARIYTVRYETNEEDKTLQEI [N10V],2.15
11,RVFKARIYTMRYETNEEDKTLQEI [N10M],3.04
12,RVFKARIYTRRYETNEEDKTLQEI [N10R],2.6
13,RVFKARIYTGRYETNEEDKTLQEI [N10G],2.75
14,RVFKARIYTSRYETNEEDKTLQEI [N10S],3.06
15,RVFKARIYTKRYETNEEDKTLQEI [N10K],3.01
16,RVFKARIYTIRYETNEEDKTLQEI [N10I],2.73
17,RVFKARIYTTRYETNEEDKTLQEI [N10T],2.45
18,RVFKARIYTLRYETNEEDKTLQEI [N10L],2.11
19,RVFKARIYTERYETNEEDKTLQEI [N10E],3.31
20,RVFKARIYTDRYETNEEDKTLQEI [N10D],2.61
21,RVFKARIYTWRYETNEEDKTLQEI [N10W],2.2
22,RVFKARIYTQRYETNEEDKTLQEI [N10Q],3.36
23,RVFKARIYTFRYETNEEDKTLQEI [N10F],1.93
24,RVFKARIYTHRYETNEEDKTLQEI [N10H],2.82

row,Variant,protein stability index
1,RVFKARIYTCRYETNEEDKTLQEI [N10C],2.29
2,RVFKARIYTARYETNEEDKTLQEI [N10A],2.31
3,RVFKARIYTPRYETNEEDKTLQEI [N10P],2.21
4,RVGKARIYTNRYETNEEDKTLQEI [F3G],4.12
5,RVSKARIYTNRYETNEEDKTLQEI [F3S],4.54
6,RVAKARIYTNRYETNEEDKTLQEI [F3A],4.19
7,RVDKARIYTNRYETNEEDKTLQEI [F3D],5.46
8,RVMKARIYTNRYETNEEDKTLQEI [F3M],4.41
9,RVPKARIYTNRYETNEEDKTLQEI [F3P],4.55
10,RVLKARIYTNRYETNEEDKTLQEI [F3L],3.05
11,RVTKARIYTNRYETNEEDKTLQEI [F3T],4.88
12,RVIKARIYTNRYETNEEDKTLQEI [F3I],4.61
13,RVYKARIYTNRYETNEEDKTLQEI [F3Y],2.59
14,RVQKARIYTNRYETNEEDKTLQEI [F3Q],4.59
15,RVWKARIYTNRYETNEEDKTLQEI [F3W],2.65
16,RVEKARIYTNRYETNEEDKTLQEI [F3E],5.23
17,RVVKARIYTNRYETNEEDKTLQEI [F3V],4.15
18,RVNKARIYTNRYETNEEDKTLQEI [F3N],4.76
19,RVCKARIYTNRYETNEEDKTLQEI [F3C],2.82
20,RVKKARIYTNRYETNEEDKTLQEI [F3K],4.32
21,RVHKARIYTNRYETNEEDKTLQEI [F3H],4.63
22,RVRKARIYTNRYETNEEDKTLQEI [F3R],4.71
